Experiments:
[1] = target: Cry3Bb toxin of Bacillus thuringiensis, recombinant from E. coli, chymotrypsin-treated (Bacillus thuringiensis, UniProt Q06117 160-652); test: ELISA saturation binding
[2] = target: Cry3Aa toxin of Bacillus thuringiensis tenebrionis, chymotrypsin-treated (Bacillus thuringiensis subsp. …, UniProt P0A379 159-644); test: ELISA
Sequence of Cry3Aa toxin of Bacillus thuringiensis tenebrionis, chymotrypsin-treated (P0A379 159-644): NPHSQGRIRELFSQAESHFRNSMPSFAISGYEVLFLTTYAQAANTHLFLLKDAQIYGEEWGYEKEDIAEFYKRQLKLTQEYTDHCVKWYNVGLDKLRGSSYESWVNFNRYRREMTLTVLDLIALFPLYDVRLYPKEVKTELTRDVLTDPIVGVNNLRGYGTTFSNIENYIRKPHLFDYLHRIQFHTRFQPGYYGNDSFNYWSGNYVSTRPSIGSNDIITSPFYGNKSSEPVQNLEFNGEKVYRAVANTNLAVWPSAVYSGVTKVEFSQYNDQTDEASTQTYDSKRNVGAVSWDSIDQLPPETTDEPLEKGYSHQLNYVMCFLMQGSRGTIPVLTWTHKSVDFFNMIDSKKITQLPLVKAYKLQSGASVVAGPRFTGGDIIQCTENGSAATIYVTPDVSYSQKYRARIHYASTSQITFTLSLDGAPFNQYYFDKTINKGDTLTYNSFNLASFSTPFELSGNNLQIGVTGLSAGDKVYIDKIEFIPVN

Sequence of Cry3Bb toxin of Bacillus thuringiensis, recombinant from E. coli, chymotrypsin-treated (Q06117 160-652): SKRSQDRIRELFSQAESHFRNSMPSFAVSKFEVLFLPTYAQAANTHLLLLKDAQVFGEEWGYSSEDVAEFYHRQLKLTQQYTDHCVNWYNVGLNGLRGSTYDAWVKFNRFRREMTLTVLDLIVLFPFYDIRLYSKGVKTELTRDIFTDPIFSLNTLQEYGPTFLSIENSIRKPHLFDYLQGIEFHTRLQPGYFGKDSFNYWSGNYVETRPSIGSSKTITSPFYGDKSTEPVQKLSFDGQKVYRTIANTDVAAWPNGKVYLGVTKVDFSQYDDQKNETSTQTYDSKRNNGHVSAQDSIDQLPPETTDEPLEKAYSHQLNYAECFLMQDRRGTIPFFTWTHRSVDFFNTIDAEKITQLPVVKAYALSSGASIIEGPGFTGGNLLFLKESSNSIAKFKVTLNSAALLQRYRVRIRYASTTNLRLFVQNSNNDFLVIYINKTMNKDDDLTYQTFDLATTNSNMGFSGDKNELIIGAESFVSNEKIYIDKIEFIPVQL

B1: Dv-CR8-10 peptide (cadherin repeats 8-10 of the Diabrotica virgifera virgifera cadherin-like protein), biotinylated (peptide)
chain: MAVLMTKDLQCSENLNKDGEVGEGIIGEDIDDGDNAKIDFSVLSIVDKETKNDIQESFNISKIDSDYVLNDTLKKVHLIAFEDLKGKYGTYEVTLHMHDEGDPMQTTDPDPTLTLTIEKWNYQTPSIIFPENDQTYIVLSDQQPGQPLALFNNTGTSNTLPDFSATDGETKDYSKWDVKFSYTQTNYEDDKIFVIDHIQPCVSQLQVSKHFNSDLVRSKKYKLTITASVKDGAEQEGEAGYSTSANISIVFLNNDAQPIFQNSDWSVSFVEFNTTQPAKPLEEQAEYENTKGGLPIYYHFYSENQTLSKYFEVDETSGDLSVIGNLTYDYDQDISFHIVASNDSQVRMLDPRSSLNVTVNFLPRNRRAPQWHHHHHH
modifications: biotinylated (sites not given)
Q: For B1, which Kd [1] is on record?
A: Its Kd is 1.4 nM.

Q: What about the Kd [2] of the same binder?
A: The Kd was 18.8 nM.
